Publication PMC3763809

Target: nucleosome containing the H3(1-132)-QFI chimera (Drosophila | budding yeast), P02299
Assay: ITC

GLRKSTRVKVAPLQYWRNEKIVY (domain or fragment, modifications not checked) [budding yeast CENP-C motif]
Kd: 300 nM
